Two substances from patent publication US20230374502A1 can be followed below.

For the test, the target named is SpCas9 (Streptococcus pyogenes Cas9) (Streptococcus pyogenes) (UniProt Q99ZW2). Description: cell-based or functional assay.

In turn, “Acx105 (AcrIIA4, wild type; AcrIIA4_lmo)” came in with an indel frequency (TIDE), OFF - R1, sample E2A-F2A - Acx-105 of 1%; an indel frequency (TIDE), OFF - R1, sample EMCV IRESV5 of 6.6%; an indel frequency (TIDE), OFF - R1, sample EMCV IRESV10 of 5%; an indel frequency (TIDE), OFF - R1, sample EMCV IRESV15 of 15.8%. For the same substance, the indel frequency (TIDE), OFF - R1, sample EMCV IRESV21 is 12.2%; the indel frequency (TIDE), OFF - R1, sample EMCV WT IRES is 2.3%; the indel frequency (TIDE), OFF - R1, sample F2A - Acx-105 came to 0.8%; the indel frequency (TIDE), OFF - R1, sample T2A - Acx-105 amounted to 1.3%. Besides, the indel frequency (TIDE), OFF - R1, sample T2A-E2A-F2A - Acx-105 was 0.7%; the indel frequency (TIDE), ON - R1, sample E2A-F2A - Acx-105 turned out to be 2.7%; the indel frequency (TIDE), ON - R1, sample EMCV IRESV5 was found to be 12.5%; the indel frequency (TIDE), ON - R1, sample EMCV IRESV10 was determined as 26.5%. This substance also showed an indel frequency (TIDE), ON - R1, sample EMCV IRESV15 of 54.3%; an indel frequency (TIDE), ON - R1, sample EMCV IRESV21 of 50%; an indel frequency (TIDE), ON - R1, sample EMCV WT IRES of 1.2%; an indel frequency (TIDE), ON - R1, sample F2A - Acx-105 of 1.2%. This substance registered an indel frequency (TIDE), ON - R1, sample T2A - Acx-105 of 3.4%; an indel frequency (TIDE), ON - R1, sample T2A-E2A-F2A - Acx-105 of 4.5%; an indel frequency, OFF - R1, Acr start codon ACG of 13.5%; an indel frequency, OFF - R1, Acr start codon AUA of 9.8%. Also, the indel frequency, OFF - R1, Acr start codon AUG is 1.4%; the indel frequency, OFF - R1, Acr start codon CUG stood at 7.8%; the indel frequency, OFF - R1, Acr start codon GUG was found to be 9.5%; the indel frequency, OFF - R1, Acr start codon UUG turned out to be 11.7%. The indel frequency, ON - R1, Acr start codon ACG stood at 32.5%; the indel frequency, ON - R1, Acr start codon AUA came out at 25.4%; the indel frequency, ON - R1, Acr start codon AUG stood at 5.6%; the indel frequency, ON - R1, Acr start codon CUG is 22.3%. This substance also came in with an indel frequency, ON - R1, Acr start codon GUG of 26.3%; an indel frequency, ON - R1, Acr start codon UUG of 27%; an inhibition of OFF target editing, Acr start codon CUG of 50%; an inhibition of ON target editing, Acr start codon CUG of 36%. The same substance showed a reduction of SpCas9 editing, Acr start codon AUG above 80%.
As for Acx137 (AcrVA1, wild type; AcrVA1_mbo), the indel frequency (TIDE), OFF - R1, sample EMCV WT IRES - Acx137 turned out to be 7.9%; the indel frequency (TIDE), OFF - R1, sample T2A - Acx -137 was 11%; the indel frequency (TIDE), ON - R1, sample EMCV WT IRES - Acx137 was determined as 38.8%; the indel frequency (TIDE), ON - R1, sample T2A - Acx -137 is 40.3%.
